Results as given in patent US20100196361A1, “Method of inhibition of vascular development using an antibody” (DYAX CORP., priority 2003, published 2010).

T1: human Tie1-Fc fusion protein (Homo sapiens, UniProt P35590)
T1 construct: selected against the Tie1 extracellular domain fused to human Fc or to a histidine purification tag
T1 sequence (P35590 22-759 limits assumed): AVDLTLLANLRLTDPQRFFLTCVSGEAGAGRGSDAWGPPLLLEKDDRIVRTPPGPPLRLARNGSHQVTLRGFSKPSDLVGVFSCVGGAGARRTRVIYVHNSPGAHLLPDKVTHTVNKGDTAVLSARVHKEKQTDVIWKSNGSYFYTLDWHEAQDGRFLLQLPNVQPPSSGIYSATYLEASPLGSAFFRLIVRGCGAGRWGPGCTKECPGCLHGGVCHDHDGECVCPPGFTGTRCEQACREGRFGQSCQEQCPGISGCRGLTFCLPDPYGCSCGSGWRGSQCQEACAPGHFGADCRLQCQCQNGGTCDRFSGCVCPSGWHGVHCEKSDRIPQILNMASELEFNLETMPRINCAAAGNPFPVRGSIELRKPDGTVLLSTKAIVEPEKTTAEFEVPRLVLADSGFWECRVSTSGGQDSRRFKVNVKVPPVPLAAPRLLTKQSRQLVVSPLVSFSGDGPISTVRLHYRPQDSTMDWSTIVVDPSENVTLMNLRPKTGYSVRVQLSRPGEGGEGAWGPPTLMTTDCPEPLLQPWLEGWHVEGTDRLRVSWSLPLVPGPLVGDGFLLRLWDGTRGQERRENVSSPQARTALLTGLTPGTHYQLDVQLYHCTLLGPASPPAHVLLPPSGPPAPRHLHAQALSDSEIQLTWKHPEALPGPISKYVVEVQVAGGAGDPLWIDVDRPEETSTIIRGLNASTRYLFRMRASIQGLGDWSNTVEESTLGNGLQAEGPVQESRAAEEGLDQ

T2: human Tie1 Fc (Homo sapiens, UniProt P35590)
T2 construct: selected against the Tie1 extracellular domain fused to human Fc or to a histidine purification tag
T2 sequence (P35590 22-759 limits assumed): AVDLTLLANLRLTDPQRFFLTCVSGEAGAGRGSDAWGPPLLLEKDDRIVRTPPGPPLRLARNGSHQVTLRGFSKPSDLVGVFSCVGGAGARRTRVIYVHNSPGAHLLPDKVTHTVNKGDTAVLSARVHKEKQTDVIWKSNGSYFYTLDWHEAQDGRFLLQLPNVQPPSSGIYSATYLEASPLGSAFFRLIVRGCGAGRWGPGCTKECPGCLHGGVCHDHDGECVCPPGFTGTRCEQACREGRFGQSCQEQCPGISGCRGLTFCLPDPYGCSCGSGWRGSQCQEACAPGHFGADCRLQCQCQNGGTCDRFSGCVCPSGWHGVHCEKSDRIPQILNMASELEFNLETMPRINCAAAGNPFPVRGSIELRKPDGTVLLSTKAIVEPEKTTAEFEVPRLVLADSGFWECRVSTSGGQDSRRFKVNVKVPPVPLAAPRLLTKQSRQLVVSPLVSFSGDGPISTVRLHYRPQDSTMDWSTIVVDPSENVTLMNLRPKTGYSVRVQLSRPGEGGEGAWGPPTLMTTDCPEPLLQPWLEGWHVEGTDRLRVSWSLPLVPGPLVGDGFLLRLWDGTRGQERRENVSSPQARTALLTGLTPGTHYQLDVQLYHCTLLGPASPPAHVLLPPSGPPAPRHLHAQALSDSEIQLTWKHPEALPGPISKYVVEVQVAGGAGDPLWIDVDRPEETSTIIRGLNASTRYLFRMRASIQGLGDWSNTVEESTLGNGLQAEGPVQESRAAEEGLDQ


How the values were obtained:
Type in all cases: binding
[1] = target: T1, human Tie1-Fc fusion protein; assay: BIAcore 3000 affinity analysis of Fab and IgG
Description: Affinity analysis of the Fab and IgGs was performed using surface plasmon resonance using a BIAcore 3000 instrument. For this analysis both dimeric (Tie1-Fc fusion protein) and monomeric (Tie1-HIS) versions of the extracellular domain of the Tie1 were used. The sensor chips used in these experiments were CM5 (dextran-coated) which allow immobilization of proteins to the chip via standard amine coupling chemistries. The concentration of flowed antibody was determined using a surface plasmon resonance based method. Using a high-density protein A sensor chip, under mass transport limited conditions, the response signal is dependent only on the concentration of the antibody in the sample under test. This approach allows a precise determination of the antibody concentration, a parameter important for accurate determination of the KD.
470 RUs of Tie1 HIS protein were coated on a CM5 sensor chip and 5, 20, 100, and 500 nM of the Fab flowed over the chip at four different flow rates ([…]), rates in which the system is not mass transport limited. Kinetic data was typically determined using a range of analyte concentrations and three different chip coating densities. The data from the lowest coating density that gave a good signal was typically chosen, this was often in a range from 50-100 RUs. Using such low coating densities allowed the sensor curves to be fit using BIAEVALUATION™ 3.0 software to a 1:1 model, often even when using a bivalent analyte (IgG or Tie1-Fc fusion protein). For bivalent analytes, when fit to a 1:1 model was not possible, the curves were fit using a 2:1 model.
The anti-Tie1 antibodies described here bind to both human and mouse Tie1 molecules. The binding of the anti-Tie1 Fab to mouse Tie1-Fc fusion protein was compared with the binding of the anti-Tie1 Fab to human Tie1-Fc fusion protein. In both of these experiments the Tie1-Fc fusion protein was immobilized on the sensor chip and the anti Tie-1 Fab served as the analyte. Under these experimental conditions the anti-Tie1 Fab has very similar KD (˜3 nM) values for both the human and mouse Tie1-Fc fusion proteins (Table 9). Under conditions that are likely to mimic those used in the animal efficacy experiments, i.e. Tie1-Fc immobilized to the CM5 sensor chip and anti-Tie1 used as the analyte, the measured KD was 0.2 nM.

human Tie1 Fc [2] = target: T2, human Tie1 Fc; assay: BIAcore, Tie1 Fc over IgG coated on CM5 chip; conditions: IgG immobilised; Human Tie1 Fc analyte
Description: The germlined E3 IgG1 stock solution 0.63 mg/ml was diluted 1/50 in a buffer of pH4.5 and the parental E3 IgG1 stock solution 0.56 mg/ml (2143-001) was diluted 1/50 in a buffer of pH 4.5. The IgG were directly coated onto a CM5 chip. The surface of the chips was activated with a 7 minute pulse of 0.05M NHS/0.2M EDC and the IgG was flowed over until 780RU germlined E3-IgG and 728 non germlined E3 IgG was coated onto the surface. All flow cells were subsequently deactivated with a 7 minute pulse of 1M ethanolamine hydrochloride pH 8.5. All analysis was performed in HBS buffer. Purified recombinant human Tie1 Fc was diluted 1/28.7 in HBS to obtain a 400 nM stock solution. Serial dilutions were made to obtain 200 nM, 100 nM, 50 nM and 25 nM Tie1 Fc stocks. For analysis of the association phase samples were injected at 30 μl/min for 8.3 minutes using kinject program. This was followed by a 40 minutes dissociation phase. Any antigen remaining associated to the surface was stripped from the IgG surface at a flow of 50 μl/min with two injections of 10 mM glycine pH 1.5 for 30 seconds. All samples were run and analyzed in duplicate
(§1) Sensorgrams were analyzed using the simultaneous ka/kd fitting program with 1:1 model in the BIAEVALUATION™ software 3.1.

human Tie1 Fc [3] = target: T2, human Tie1 Fc; assay: BIAcore, Fab over biotinylated Tie1-Fc on streptavidin chip; conditions: Fab analyte; for kon: 830 RU
Description: Recombinant purified human Tie1-Fc antigen (Stock 2.45 mg/ml) was biotinylated using the EZ-link Sulfo-NHS-SS-Biotin (Pierce, Cat. 21331). The reaction was performed for 2 hours on ice in 50 mM sodium carbonate buffer, pH 9.6, in the presence of a 5-fold molar excess of biotinylating agent and was stopped by the addition of Tris-HCl, pH 7.5 (50 mM final concentration) followed by a 1-hour incubation on ice. Samples were then dialyzed against PBS. The antigen was then diluted 1/100 fold in HBS and was then captured onto a streptavidin chip. This was coated to a density of 830RU (resonance units). All analysis was performed in HBS buffer. The parental Fab E3 and germlined E3 Fab were prepared as described above. A stock solution of 0.587 mg/ml (11740 nM) was diluted 1/587 in HBS+BSA to obtain a stock of 20 nM and the germlined Fab E3 0.025 mg/ml (500 nM) was diluted 1/25 in HBS+BSA to obtain a stock of 20 nM. Serial dilutions were made of each Fab preparation to obtain 10 nM, 5 nM, 2.5 nM, and 1.25 nM solutions. For the association phase samples were injected at 30 μl/min for 4 minutes using kinject program. This was followed by a 10 minutes dissociation phase, any remaining sample was stripped from the Tie1 Fc surface at a flow of 50 μl/min with a single injection of 5 mM NaOH+1M NaCl for 18 seconds. All samples were run and analyzed in duplicate.
as §1

| Molecule | Kon [1] [M⁻¹ s⁻¹] | koff [1] [s⁻¹] | koff (human Tie1 Fc [2]) [s⁻¹] | kon (human Tie1 Fc [2]) [M⁻¹ s⁻¹] | koff (human Tie1 Fc [3]) [s⁻¹] | kon (human Tie1 Fc [3]) [M⁻¹ s⁻¹] |
| --- | --- | --- | --- | --- | --- | --- |
| E3: human anti-Tie1 antibody from phage Fab library, reformatted as IgG; HC variable SEQ ID NO:114, LC variable SEQ ID NO:116 (antibody, V domains shown, IgG constant regions; Synthetically generated peptide) VH: EVQLLESGGGLVQPGGSLRLSCAASGFTFSMYGMVWVRQAPGKGLEWVSVISPSGGNTGYADSVKGRFTISRDNSKNTLYLQVNSLRAEDTAVYYCARAPRGYSYGYYYWGQGTLVTVSSASTKGPSVFPLAPSSKSTSGG VL: DIQMTQSPLSLSASVGDRVTITCRASQGIGHYLAWYQQKPGKVPKLLIYTASTLQSGVPSRFSGSGSGTDFTLTINSLQPEDVATYYCQQFNSYPHTFGQGTRLDIK | 6190 | 3.61e-05 | 3.61e-05 | 6190 | – | – |
| DX-2210: E3 antibody in which the light chain has been germlined (antibody, V domains shown) VH: EVQLLESGGGLVQPGGSLRLSCAASGFTFSMYGMVWVRQAPGKGLEWVSVISPSGGNTGYADSVKGRFTISRDNSKNTLYLQVNSLRAEDTAVYYCARAPRGYSYGYYYWGQGTLVTVSSASTKGPSVFPLAPSSKSTSGG VL: DIQMTQSPSSLSASVGDRVTITCRASQGIGHYLAWYQQKPGKVPKLLIYTASTLQSGVPSRFSGSGSGTDFTLTISSLQPEDVATYYCQQFNSYPHTFGQGTRLEIK | – | – | 3.67e-05 | 7090 | – | – |
| parental E3 Fab: soluble Fab fragment of the parental E3 anti-Tie1 antibody (antibody, V domains shown) VH: EVQLLESGGGLVQPGGSLRLSCAASGFTFSMYGMVWVRQAPGKGLEWVSVISPSGGNTGYADSVKGRFTISRDNSKNTLYLQVNSLRAEDTAVYYCARAPRGYSYGYYYWGQGTLVTVSSASTKGPSVFPLAPSSKSTSGG VL: DIQMTQSPLSLSASVGDRVTITCRASQGIGHYLAWYQQKPGKVPKLLIYTASTLQSGVPSRFSGSGSGTDFTLTINSLQPEDVATYYCQQFNSYPHTFGQGTRLDIK | 8260 | 4.47e-05 | – | – | 0.00061 | 300000 |
| germlined E3 Fab: soluble Fab of E3 with LC framework regions germlined to DPK4; LC variable SEQ ID NO:159 (antibody, V domains shown) VH: EVQLLESGGGLVQPGGSLRLSCAASGFTFSMYGMVWVRQAPGKGLEWVSVISPSGGNTGYADSVKGRFTISRDNSKNTLYLQVNSLRAEDTAVYYCARAPRGYSYGYYYWGQGTLVTVSSASTKGPSVFPLAPSSKSTSGG VL: DIQMTQSPSSLSASVGDRVTITCRASQGIGHYLAWYQQKPGKVPKLLIYTASTLQSGVPSRFSGSGSGTDFTLTISSLQPEDVATYYCQQFNSYPHTFGQGTRLEIK | – | – | – | – | 0.00102 | 300000 |
